The chains are these.
B1: porcine trypsin variant S172A (SEQ ID NO: 2) (protein)
chain: IVGGYTCAANSIPYQVSLNSGSHFCGGSLINSQWVVSAAHCYKSRIQVRLGEHNIDVLEGNEQFINAAKIITHPNFNGNTLDNDIMLIKLSSPATLNSRVATVSLPRSCAAAGTECLISGWGNTKSSGSSYPSLLQCLKAPVLSDSSCKSSYPGQITGNMICVGFLEGGKDACQGDSGGPVVCNGQLQGIVSWGYGCAQKNKPGVYTKVCNYVNWIQQTIAAN
B2: trypsin variant SEQ ID NO: 115 (protein)
chain: B1 chain with F24R, S44P, D56H, R99N, R107T, K125S, Y131M, W193S
B3: trypsin variant SEQ ID NO: 111 (protein)
chain: B1 chain with F24R, S44P, D56H, G78P, R99H, R107T, K125S, K170A, W193S
B4: trypsin variant SEQ ID NO: 116 (protein)
chain: B1 chain with F24R, S44P, D56H, R99N, R107T, K125S, Y131M, K170A, W193S
B5: trypsin variant SEQ ID NO: 19 (protein)
chain: B1 chain with F24R, K125C, W193S
B6: trypsin variant SEQ ID NO: 4 (protein)
chain: B1 chain with F24R, R99A, W193S
B7: trypsin variant SEQ ID NO: 118 (protein)
chain: B1 chain with F24R, S44P, D56H, R99H, R107T, K125A, Y131M, K170A, W193S
B8: trypsin variant SEQ ID NO: 18 (protein)
chain: B1 chain with F24R, K125S, W193S
B9: trypsin variant SEQ ID NO: 117 (protein)
chain: B1 chain with F24R, S44P, D56H, R99N, R107T, K125A, Y131M, W193S
B10: trypsin variant SEQ ID NO: 24 (protein)
chain: B1 chain with F24R, K170Y, W193S
B11: trypsin variant SEQ ID NO: 41 (protein)
chain: B1 chain with F24R, Y131H, W193S
B12: trypsin variant SEQ ID NO: 119 (protein)
chain: B1 chain with F24R, S44P, D56H, R99A, R107T, K125A, Y131M, W193S
B13: trypsin variant SEQ ID NO: 113 (protein)
chain: B1 chain with F24R, S44P, D56H, R99A, R107T, K125A, K170A, W193S
B14: trypsin variant SEQ ID NO: 25 (protein)
chain: B1 chain with F24R, K170A, W193S
B15: trypsin variant SEQ ID NO: 14 (protein)
chain: B1 chain with F24R, R99H, W193S
B16: trypsin variant SEQ ID NO: 36 (protein)
chain: B1 chain with F24R, Y131M, W193S

The values below come from patent publication US20230303994.

Where a chain is given by its changes, count along the chain named. In names and notes the source's numbering stands.

Chain of insulin glargine, P01308 (P01308 whole entry, looked up): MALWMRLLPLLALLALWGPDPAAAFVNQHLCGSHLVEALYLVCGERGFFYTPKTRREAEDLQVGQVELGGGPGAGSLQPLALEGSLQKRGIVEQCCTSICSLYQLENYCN

The first series addresses insulin glargine, P01308.
B1: the exopeptidase activity entry was “the concentration of insulin glargine is decreased over time”.

The target of the next series is pre-pro-human insulin.
For B1, the “Activity PPI cleavage” value is given as “yes” and the Selectivity turned out to be 62.1%.
Consider B2, for which the “Activity PPI cleavage” value is recorded as “yes” and the Selectivity was above 90%.
In the same order, the values of B3 are “yes” and above 80%.
For B4, the “Activity PPI cleavage” value was “yes” and the Selectivity is listed as above 90%.
The like results for B5 were, in that order, “yes” and above 90%.
Consider B6, for which the “Activity PPI cleavage” value is “yes” and the Selectivity is recorded as above 90%.
In the same order, the values of B7 are “yes” and above 90%.
In the same order, the values of B8 are “yes” and above 90%.
On to B9, for which the “Activity PPI cleavage” value is on record as “yes” and the Selectivity was above 90%.
On to B10, for which the “Activity PPI cleavage” value is given as “yes” and the Selectivity is recorded as above 90%.
The like results for B11 were, in that order, “yes” and above 90%.
The like results for B12 were, in that order, “yes” and above 90%.
As to B13, the “Activity PPI cleavage” value is reported as “yes” and the Selectivity is on record as above 90%.
In the same order, the values of B14 are “yes” and above 90%.
The like results for B15 were, in that order, “yes” and above 90%.
In the same order, the values of B16 are “yes” and above 90%.

Another series deals with pre-pro-insulin glargine.
B1 had a Purity Insulin Glargine of 53.6 area %, a Yield of 65%, a desArg of 19.1 area % and a desThr of 5.2 area %.
In the same order, the values of B2 are 83.5 area %, above 90%, 0.8 area % and 0.6 area %.
As for B3, the Purity Insulin Glargine was 85.9 area %, the Yield is above 90%, the desArg stood at 0.7 area % and the desThr was found to be 2.6 area %.
The like results for B4 were, in that order, 82.7 area %, above 90%, 0.5 area % and 0.6 area %.
As for B5, the Purity Insulin Glargine was found to be 81 area %, the Yield was above 80%, the desArg is below 0.5 area % and the desThr amounted to 3.3 area %.
In the same order, the values of B6 are 86.4 area %, above 90%, below 0.5 area % and 2.9 area %.
The like results for B7 were, in that order, 87.6 area %, above 90%, 0.6 area % and 1 area %.
The protein B8 yielded a Purity Insulin Glargine of 82.6 area %, a Yield above 80%, a desArg below 0.5 area % and a desThr of 1.9 area %.
In the same order, the values of B9 are 85 area %, above 90%, 0.6 area % and 0.8 area %.
The like results for B10 were, in that order, 82.3 area %, above 80%, below 0.5 area % and 2.8 area %.
In the same order, the values of B11 are 82.8 area %, above 90%, below 0.5 area % and 1.9 area %.
B12 registered a Purity Insulin Glargine of 85.2 area %, a Yield above 90%, a desArg of 0.6 area % and a desThr of 1 area %.
Regarding B13, the Purity Insulin Glargine came to 86.1 area %, the Yield is above 90%, the desArg is 0.5 area % and the desThr turned out to be 1.7 area %.
In the same order, the values of B14 are 80.4 area %, above 80%, below 0.5 area % and 2.8 area %.
The like results for B15 were, in that order, 84.5 area %, above 90%, below 0.5 area % and 2.4 area %.
In turn, B16 showed a Purity Insulin Glargine of 87.6 area %, a Yield above 90%, a desArg below 0.5 area % and a desThr of 1.5 area %.
